Assay results reported in article PMC11474037.

Biological target: insulin receptor (purified IR, consisting of α and β subunits) (human (cloned from HEK293T cells)) (UniProt P06213)
Assay: SPR

Kd: 3.33 µM
Substance: HtB-mNG (insulin B chain fused to mNeonGreen) (domain or fragment)
